Publication PMC9482650, “Quantitative fragmentomics allow affinity mapping of interactomes” (Nature Communications, 2022)

What was measured:
Test in all cases: holdup assay
Design in all cases: key: below the threshold = too weak to quantify, mostly under pKd 3.1 to 4
Conditions in all cases: plain residues with an end cap or a label only (N-terminal biotin on a linker: ado-ado)
SIPA1L2, Q9P2F8 = target: T1, SIPA1L2, Q9P2F8
T1 sequence (Q9P2F8 945-1036, limits assumed, looked up): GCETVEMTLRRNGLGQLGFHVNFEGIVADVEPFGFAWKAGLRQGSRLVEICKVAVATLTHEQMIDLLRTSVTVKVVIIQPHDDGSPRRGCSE

GRIP1_2, Q9Y3R0 = target: T2, GRIP1_2, Q9Y3R0
T2 sequence (Q9Y3R0 145-248, limits assumed, looked up): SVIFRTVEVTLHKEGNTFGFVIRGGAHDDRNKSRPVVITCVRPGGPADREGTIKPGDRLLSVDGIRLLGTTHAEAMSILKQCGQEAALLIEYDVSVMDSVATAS

CASK, O14936 = target: CASK, O14936
Sequence of CASK, O14936 (O14936 487-570): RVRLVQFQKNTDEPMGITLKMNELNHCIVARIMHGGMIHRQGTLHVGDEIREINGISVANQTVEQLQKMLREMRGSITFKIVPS

DLG2_2, Q15700 = target: DLG2_2, Q15700
Sequence of DLG2_2, Q15700 (Q15700 189-283): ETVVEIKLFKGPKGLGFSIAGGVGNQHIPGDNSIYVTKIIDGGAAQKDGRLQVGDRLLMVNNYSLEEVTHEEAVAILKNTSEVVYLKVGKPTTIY

PICK1, Q9NRD5 = target: PICK1, Q9NRD5
Sequence of PICK1, Q9NRD5 (Q9NRD5 17-115): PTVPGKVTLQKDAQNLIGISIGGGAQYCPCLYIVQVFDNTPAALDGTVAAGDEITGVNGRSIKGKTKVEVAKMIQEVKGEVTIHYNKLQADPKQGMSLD

NHERF3_3, Q5T2W1 = target: T3, NHERF3_3, Q5T2W1
T3 sequence (Q5T2W1 238-333, limits assumed, looked up): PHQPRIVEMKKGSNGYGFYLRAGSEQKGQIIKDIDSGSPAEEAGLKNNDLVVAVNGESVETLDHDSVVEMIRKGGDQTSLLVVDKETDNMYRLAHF

Inadl_5, Q8NI35 = target: Inadl_5, Q8NI35
Sequence of Inadl_5, Q8NI35 (Q8NI35 673-780): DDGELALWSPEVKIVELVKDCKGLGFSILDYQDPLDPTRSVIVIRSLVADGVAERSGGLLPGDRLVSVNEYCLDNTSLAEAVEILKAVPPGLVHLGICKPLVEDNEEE

NHERF3_4, Q5T2W1 = target: T4, NHERF3_4, Q5T2W1
T4 sequence (Q5T2W1 373-468, limits assumed, looked up): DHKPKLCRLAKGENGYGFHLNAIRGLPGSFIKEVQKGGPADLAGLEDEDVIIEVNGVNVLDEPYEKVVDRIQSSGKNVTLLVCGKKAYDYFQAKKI

GRIP2_4, Q9C0E4 = target: GRIP2_4, Q9C0E4
Sequence of GRIP2_4, Q9C0E4 (Q9C0E4 446-548): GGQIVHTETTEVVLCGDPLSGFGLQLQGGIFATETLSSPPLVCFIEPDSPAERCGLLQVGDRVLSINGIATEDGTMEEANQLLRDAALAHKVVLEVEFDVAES

HTRA4, P83105 = target: T5, HTRA4, P83105
T5 sequence (P83105 378-476, limits assumed, looked up): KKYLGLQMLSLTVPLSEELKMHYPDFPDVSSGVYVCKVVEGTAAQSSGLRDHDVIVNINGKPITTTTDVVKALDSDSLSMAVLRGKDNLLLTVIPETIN

MAGI2_3, Q86UL8 = target: MAGI2_3, Q86UL8
Sequence of MAGI2_3, Q86UL8 (Q86UL8 600-682): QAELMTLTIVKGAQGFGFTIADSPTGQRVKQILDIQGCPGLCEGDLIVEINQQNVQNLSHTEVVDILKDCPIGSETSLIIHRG

HTRA1, Q92743 = target: HTRA1, Q92743
Sequence of HTRA1, Q92743 (Q92743 360-477): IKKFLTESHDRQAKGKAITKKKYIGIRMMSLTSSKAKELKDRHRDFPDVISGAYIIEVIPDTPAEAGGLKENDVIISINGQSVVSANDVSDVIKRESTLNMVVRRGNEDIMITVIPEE

MAGI2_5, Q86UL8 = target: MAGI2_5, Q86UL8
Sequence of MAGI2_5, Q86UL8 (Q86UL8 915-1017): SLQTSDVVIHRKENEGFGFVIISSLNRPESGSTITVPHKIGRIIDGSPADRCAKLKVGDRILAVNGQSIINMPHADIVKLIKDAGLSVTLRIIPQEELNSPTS

MAGI2_4, Q86UL8 = target: MAGI2_4, Q86UL8
Sequence of MAGI2_4, Q86UL8 (Q86UL8 772-865): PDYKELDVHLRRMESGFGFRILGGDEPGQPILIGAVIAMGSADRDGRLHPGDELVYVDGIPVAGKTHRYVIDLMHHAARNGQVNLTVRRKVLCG

PTPN3, P26045 = target: PTPN3, P26045
Sequence of PTPN3, P26045 (P26045 505-587): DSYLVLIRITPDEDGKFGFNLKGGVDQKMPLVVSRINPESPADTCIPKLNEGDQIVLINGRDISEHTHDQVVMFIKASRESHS

GOPC, Q9HD26 = target: GOPC, Q9HD26
MAST1, Q9Y2H9 = target: MAST1, Q9Y2H9
Sequence of MAST1, Q9Y2H9 (Q9Y2H9 962-1065): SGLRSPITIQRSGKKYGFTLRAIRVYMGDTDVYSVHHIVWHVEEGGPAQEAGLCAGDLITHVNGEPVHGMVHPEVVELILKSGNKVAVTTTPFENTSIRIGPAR

LDB3, O75112 = target: LDB3, O75112
Sequence of LDB3, O75112 (O75112 1-94): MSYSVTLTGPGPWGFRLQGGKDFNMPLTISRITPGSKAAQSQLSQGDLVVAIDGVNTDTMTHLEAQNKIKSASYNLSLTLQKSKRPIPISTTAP

TJP3_3, O95049 = target: T6, TJP3_3, O95049
T6 sequence (O95049 375-456, limits assumed, looked up): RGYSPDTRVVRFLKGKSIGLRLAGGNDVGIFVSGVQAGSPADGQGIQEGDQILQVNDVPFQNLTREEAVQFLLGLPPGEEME

SNTG1, Q9NSN8 = target: T7, SNTG1, Q9NSN8
T7 sequence (Q9NSN8 52-150, limits assumed, looked up): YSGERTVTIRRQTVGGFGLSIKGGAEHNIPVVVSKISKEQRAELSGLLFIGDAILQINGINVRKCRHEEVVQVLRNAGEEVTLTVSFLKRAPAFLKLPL

SCRIB_2, Q14160 = target: SCRIB_2, Q14160
Sequence of SCRIB_2, Q14160 (Q14160 857-960): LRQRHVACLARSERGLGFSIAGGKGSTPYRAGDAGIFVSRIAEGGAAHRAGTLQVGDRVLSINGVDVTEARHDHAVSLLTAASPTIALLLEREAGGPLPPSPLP

SNTA1, Q13424 = target: T8, SNTA1, Q13424
T8 sequence (Q13424 82-180, limits assumed, looked up): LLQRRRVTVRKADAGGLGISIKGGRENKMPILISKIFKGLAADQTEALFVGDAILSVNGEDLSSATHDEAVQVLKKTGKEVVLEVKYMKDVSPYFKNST

GRIP2_3, Q9C0E4 = target: GRIP2_3, Q9C0E4
Sequence of GRIP2_3, Q9C0E4 (Q9C0E4 238-339): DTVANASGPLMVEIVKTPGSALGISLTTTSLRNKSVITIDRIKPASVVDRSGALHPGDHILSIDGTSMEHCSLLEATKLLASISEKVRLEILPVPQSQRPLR

FRMPD2_1, Q68DX3 = target: FRMPD2_1, Q68DX3
Sequence of FRMPD2_1, Q68DX3 (Q68DX3 770-861): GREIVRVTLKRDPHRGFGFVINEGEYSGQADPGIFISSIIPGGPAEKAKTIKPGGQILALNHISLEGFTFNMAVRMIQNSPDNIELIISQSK

NHERF4_2, Q86UT5 = target: NHERF4_2, Q86UT5
Sequence of NHERF4_2, Q86UT5 (Q86UT5 220-308): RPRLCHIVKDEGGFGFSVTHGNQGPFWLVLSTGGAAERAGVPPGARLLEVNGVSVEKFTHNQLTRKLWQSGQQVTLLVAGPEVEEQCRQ

Inadl_6, Q8NI35 = target: Inadl_6, Q8NI35
Sequence of Inadl_6, Q8NI35 (Q8NI35 1058-1167): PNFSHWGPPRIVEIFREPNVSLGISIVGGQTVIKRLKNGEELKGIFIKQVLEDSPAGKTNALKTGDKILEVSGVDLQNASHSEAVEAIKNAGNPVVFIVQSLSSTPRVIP

PDZD2_2, O15018 = target: T9, PDZD2_2, O15018
T9 sequence (O15018 329-429, limits assumed, looked up): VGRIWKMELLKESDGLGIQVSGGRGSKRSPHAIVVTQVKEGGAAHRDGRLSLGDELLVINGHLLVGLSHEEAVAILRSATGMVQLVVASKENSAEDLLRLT

CARD11, Q9BXL7 = target: T10, CARD11, Q9BXL7
T10 sequence (Q9BXL7 662-765, limits assumed, looked up): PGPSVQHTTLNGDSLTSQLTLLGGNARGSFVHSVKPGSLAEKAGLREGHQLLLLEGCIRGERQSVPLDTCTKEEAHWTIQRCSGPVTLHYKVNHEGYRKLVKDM

LNX1_3, Q8TBB1 = target: LNX1_3, Q8TBB1
Sequence of LNX1_3, Q8TBB1 (Q8TBB1 500-596): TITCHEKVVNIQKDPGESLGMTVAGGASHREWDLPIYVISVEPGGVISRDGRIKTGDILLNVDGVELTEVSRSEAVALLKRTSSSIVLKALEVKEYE

HYPASPDSWV [CTNND2, Q9UQB3]
pKd (SIPA1L2, Q9P2F8): below the threshold
pKd (GRIP1_2, Q9Y3R0): below the threshold
pKd (CASK, O14936): below the threshold
pKd (DLG2_2, Q15700): 4.09
pKd (PICK1, Q9NRD5): 4.17
pKd (NHERF3_3, Q5T2W1): below the threshold
pKd (Inadl_5, Q8NI35): 3.64
pKd (NHERF3_4, Q5T2W1): below the threshold
pKd (GRIP2_4, Q9C0E4): below the threshold
pKd (HTRA4, P83105): 4.06
pKd (MAGI2_3, Q86UL8): 3.58
pKd (HTRA1, Q92743): 4.71
pKd (MAGI2_5, Q86UL8): below the threshold
pKd (MAGI2_4, Q86UL8): 4.34
pKd (PTPN3, P26045): 5.07
pKd (GOPC, Q9HD26): below the threshold
pKd (MAST1, Q9Y2H9): 3.9
pKd (LDB3, O75112): 3.74
pKd (TJP3_3, O95049): 4.91
pKd (SNTG1, Q9NSN8): 4.64
pKd (SCRIB_2, Q14160): 4.81
pKd (SNTA1, Q13424): 4.17
pKd (GRIP2_3, Q9C0E4): below the threshold
pKd (FRMPD2_1, Q68DX3): below the threshold
pKd (NHERF4_2, Q86UT5): 3.55
pKd (Inadl_6, Q8NI35): 4.37
pKd (PDZD2_2, O15018): 5.99
pKd (CARD11, Q9BXL7): below the threshold
pKd (LNX1_3, Q8TBB1): below the threshold

VCMGDHWFDV [PRKN, O60260]
pKd (SIPA1L2, Q9P2F8): below the threshold
pKd (GRIP1_2, Q9Y3R0): below the threshold
pKd (CASK, O14936): 4.83
pKd (DLG2_2, Q15700): below the threshold
pKd (PICK1, Q9NRD5): below the threshold
pKd (NHERF3_3, Q5T2W1): below the threshold
pKd (Inadl_5, Q8NI35): below the threshold
pKd (NHERF3_4, Q5T2W1): below the threshold
pKd (GRIP2_4, Q9C0E4): below the threshold
pKd (HTRA4, P83105): 3.98
pKd (MAGI2_3, Q86UL8): below the threshold
pKd (HTRA1, Q92743): 4.96
pKd (MAGI2_5, Q86UL8): below the threshold
pKd (MAGI2_4, Q86UL8): 4.04
pKd (PTPN3, P26045): 3.49
pKd (GOPC, Q9HD26): below the threshold
pKd (MAST1, Q9Y2H9): below the threshold
pKd (LDB3, O75112): 3.9
pKd (TJP3_3, O95049): 4.57
pKd (SNTG1, Q9NSN8): 3.81
pKd (SCRIB_2, Q14160): below the threshold
pKd (SNTA1, Q13424): below the threshold
pKd (GRIP2_3, Q9C0E4): below the threshold
pKd (FRMPD2_1, Q68DX3): below the threshold
pKd (NHERF4_2, Q86UT5): below the threshold
pKd (Inadl_6, Q8NI35): 3.7
pKd (PDZD2_2, O15018): 4.57
pKd (CARD11, Q9BXL7): below the threshold
pKd (LNX1_3, Q8TBB1): 4.07

PKSNSSKEYV [CLDN7, O95471]
pKd (SIPA1L2, Q9P2F8): below the threshold
pKd (GRIP1_2, Q9Y3R0): below the threshold
pKd (CASK, O14936): below the threshold
pKd (DLG2_2, Q15700): below the threshold
pKd (PICK1, Q9NRD5): below the threshold
pKd (NHERF3_3, Q5T2W1): below the threshold
pKd (Inadl_5, Q8NI35): below the threshold
pKd (NHERF3_4, Q5T2W1): below the threshold
pKd (GRIP2_4, Q9C0E4): below the threshold
pKd (HTRA4, P83105): below the threshold
pKd (MAGI2_3, Q86UL8): below the threshold
pKd (HTRA1, Q92743): 3.72
pKd (MAGI2_5, Q86UL8): below the threshold
pKd (MAGI2_4, Q86UL8): below the threshold
pKd (PTPN3, P26045): below the threshold
pKd (GOPC, Q9HD26): 3.7
pKd (MAST1, Q9Y2H9): 3.62
pKd (LDB3, O75112): below the threshold
pKd (TJP3_3, O95049): below the threshold
pKd (SNTG1, Q9NSN8): below the threshold
pKd (SCRIB_2, Q14160): below the threshold
pKd (SNTA1, Q13424): below the threshold
pKd (GRIP2_3, Q9C0E4): below the threshold
pKd (FRMPD2_1, Q68DX3): below the threshold
pKd (NHERF4_2, Q86UT5): below the threshold
pKd (Inadl_6, Q8NI35): below the threshold
pKd (PDZD2_2, O15018): 3.82
pKd (CARD11, Q9BXL7): below the threshold
pKd (LNX1_3, Q8TBB1): below the threshold

KLQNPNQSVV [TYRP1, P17643]
pKd (SIPA1L2, Q9P2F8): below the threshold
pKd (GRIP1_2, Q9Y3R0): below the threshold
pKd (CASK, O14936): below the threshold
pKd (DLG2_2, Q15700): 3.86
pKd (PICK1, Q9NRD5): 4.19
pKd (NHERF3_3, Q5T2W1): below the threshold
pKd (Inadl_5, Q8NI35): below the threshold
pKd (NHERF3_4, Q5T2W1): below the threshold
pKd (GRIP2_4, Q9C0E4): below the threshold
pKd (HTRA4, P83105): 3.94
pKd (MAGI2_3, Q86UL8): below the threshold
pKd (HTRA1, Q92743): 4.11
pKd (MAGI2_5, Q86UL8): 3.78
pKd (MAGI2_4, Q86UL8): 3.63
pKd (PTPN3, P26045): below the threshold
pKd (GOPC, Q9HD26): 3.72
pKd (MAST1, Q9Y2H9): 4.37
pKd (LDB3, O75112): below the threshold
pKd (TJP3_3, O95049): below the threshold
pKd (SNTG1, Q9NSN8): 3.47
pKd (SCRIB_2, Q14160): below the threshold
pKd (SNTA1, Q13424): 3.99
pKd (GRIP2_3, Q9C0E4): below the threshold
pKd (FRMPD2_1, Q68DX3): below the threshold
pKd (NHERF4_2, Q86UT5): below the threshold
pKd (Inadl_6, Q8NI35): below the threshold
pKd (PDZD2_2, O15018): 4.57
pKd (CARD11, Q9BXL7): below the threshold
pKd (LNX1_3, Q8TBB1): below the threshold

QRYPGNQTTC [CCL24, O00175]
pKd (SIPA1L2, Q9P2F8): below the threshold
pKd (GRIP1_2, Q9Y3R0): below the threshold
pKd (CASK, O14936): below the threshold
pKd (DLG2_2, Q15700): 3.51
pKd (PICK1, Q9NRD5): below the threshold
pKd (NHERF3_3, Q5T2W1): below the threshold
pKd (Inadl_5, Q8NI35): below the threshold
pKd (NHERF3_4, Q5T2W1): below the threshold
pKd (GRIP2_4, Q9C0E4): below the threshold
pKd (HTRA4, P83105): below the threshold
pKd (MAGI2_3, Q86UL8): below the threshold
pKd (HTRA1, Q92743): 3.66
pKd (MAGI2_5, Q86UL8): below the threshold
pKd (MAGI2_4, Q86UL8): below the threshold
pKd (PTPN3, P26045): 3.66
pKd (GOPC, Q9HD26): below the threshold
pKd (MAST1, Q9Y2H9): 4.14
pKd (LDB3, O75112): below the threshold
pKd (TJP3_3, O95049): below the threshold
pKd (SNTG1, Q9NSN8): below the threshold
pKd (SCRIB_2, Q14160): below the threshold
pKd (SNTA1, Q13424): below the threshold
pKd (GRIP2_3, Q9C0E4): below the threshold
pKd (FRMPD2_1, Q68DX3): below the threshold
pKd (NHERF4_2, Q86UT5): below the threshold
pKd (Inadl_6, Q8NI35): below the threshold
pKd (PDZD2_2, O15018): below the threshold
pKd (CARD11, Q9BXL7): below the threshold
pKd (LNX1_3, Q8TBB1): below the threshold
